{"source": "patent US20050175986A1", "about": "(SMIT KLINE BEECHAM, published 2005)", "molecular_target": "T1, recombinant F protein of Respiratory Syncytial Virus (Respiratory Syncytial Virus, UniProt P03420 26-524)", "T1 construct": "Recombinant F-protein as described in P. Tsui et al, J. Immunol; 157:772-780 (1996); Coated on plastic in the ELISAs; also called recombinant RSV F-protein; rF protein", "T1 sequence (P03420 26-524 limits assumed)": "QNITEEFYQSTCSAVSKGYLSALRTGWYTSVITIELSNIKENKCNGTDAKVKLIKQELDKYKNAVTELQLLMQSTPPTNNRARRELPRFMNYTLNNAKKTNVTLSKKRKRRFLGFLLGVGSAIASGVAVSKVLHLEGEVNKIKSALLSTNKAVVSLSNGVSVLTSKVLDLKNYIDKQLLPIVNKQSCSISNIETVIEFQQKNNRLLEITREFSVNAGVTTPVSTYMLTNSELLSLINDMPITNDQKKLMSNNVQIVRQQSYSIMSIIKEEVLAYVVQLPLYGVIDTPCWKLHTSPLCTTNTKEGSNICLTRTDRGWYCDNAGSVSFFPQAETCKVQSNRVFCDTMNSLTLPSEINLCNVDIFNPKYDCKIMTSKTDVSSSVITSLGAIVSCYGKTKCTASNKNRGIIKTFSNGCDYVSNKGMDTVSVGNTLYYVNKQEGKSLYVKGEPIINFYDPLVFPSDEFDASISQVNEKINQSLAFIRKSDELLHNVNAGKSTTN", "experiment": "solid phase ELISA on coated recombinant F protein", "description": "Binding of the Gλ-1 mABs to recombinant F protein was measured in a standard solid phase ELISA. Antigen diluted in PBS pH 7.0 was adsorbed onto polystyrene round-bottom microplates (Dynatech, Immunolon II) for 18 hours. Wells were then aspirated and blocked with 0.5% boiled casein (BC) in PBS containing 1% Tween 20 […] for two hours. Antibodies (50 μl/well) were diluted to varying concentrations in PBS/0.5% BC containing 0.025% Tween 20 and incubated in antigen coated wells for one hour. Plates were washed three times with PBS containing 0.05% Tween 20, using a Titertek 320 microplate washer, followed by addition of HRP-labelled protein A/G (50 μl) diluted 1:5000. After washing three times, TMBlue substrate (TSI, #TM102) was added and plates were incubated an additional 15 minutes. The reaction was stopped by addition of 1 N H₂SO₄ and absorbance read at 450 nm using a Biotek ELISA reader.\nBinding of the Gλ-1 mABs to rF protein was inhibited by mAb B4, for which the F protein amino acids critical for antigen recognition are amino acids 268, 272 and 275 of SEQ ID NO: 20). Binding of the Gλ-1 mABs to rF protein was not inhibited by mAb RSMU19, for which F protein amino acid 429 of SEQ ID NO: 20 is critical for antigen recognition.", "data": [{"binder": "Gλ-1B monoclonal antibody (antibody, human IgG1, V domains shown, Full length human IgG1, lambda light chain; made in COS and CHO cells; also called Gλ-1 mAB B; mAB B) VH: EVQLVESGGGLVQPGGSLRLSCAASGVSLSGYKMNWVRQAPGKGLEWVSSITGMSNYIHYSDSVKGRFTISRDNAMNSLYLQMNSLTAEDTGVYYCATQPGELAPFDHWGQGTLVTVSS VL: QSVLTQPPSVSAAPGQKVTISCTGSSSNLGAGYDVHWYRQLPGTAPKLLIYDNNNRPSGVPDRFSGSKSGPSASLAISGLQAEDEADYYCQSYDSSLNGYVFGTGTQLTVLG", "values": [{"measurement": "EC50", "result": 2.6, "unit": "ng/mL"}]}]}
